Laboratory results as given in a protein production outcome set (Wang et al. 2014).

Assay: label from the status in PepcDB records

Row | Sequence | protein production
1 | MPWIQVYTPVAGSLGLSALVAAIPLVVIFVCLALFKMKAHKAGLLALASAMLIAITVWGMPAKLAGLATAQGAAFGLFPVFYIVITTIFLYNITVKGGQFEIIRASLAGVTADRRLQALLIAFCFGAFIEGAAGFGTPVAIAGATLAGLGFQPLYAAGVCLVANTAPVAFGAIGIPIVALAGVMGYGDDGMMKLSTMVGRQLPFISVIIPFYVIMIMVGWKKTIEILPAIIVCGVTFALSQWATATYLGPYLPDVTASLASIIALVLLLRVWQPKTIYTFAHEAPVTGATEHHYTTGEVFRAWSPYLALTVMVLLWGIPSIKTVLDKSTVEIEVKGLHNMIVKKVAKPEDTLTKIAAASAEIDRQLTLLSPADPKQAAIAAKLMELKAFETQLAAVEQGLVGQGAVLTDERLKACDIVSKKMAETQKLCKELVKTAAVPANQFKPLDKALADHLPLKVAAKYKFNFMSAAGTAILIAAFLSALICGVGFADTFRILGKTLYDMRFPALTVASVLGLAYVMNASGMTNCLGLIFTKTGHWFPFIAPFLGWLGVFLTGSDTSSNVLFGGLQKATAEQLGISPILTGAANTSGGVMGKMISPQSLAVATAATGMVGEEGTLFRFTLKHSIFLTILVGIIVYLQAYVLQWMIP | failed
2 | MKKTPIYVEISIQAEMERLWRYTQDPTLHRQWDLRFTDITYLKRRPGEPQRFLYETRIGFGLEHHHHHH | not failed
3 | MKRFINRRQELDFLEKQYREQNSSLVIIYGRRRIGKTALIKKFIEDKPAIYFLASEEAESQNIEYYKKAVGNFLKNPLIERLSGVGWDDIFDVIINAKINKKTVIVFDEFQNLCKTNPAFASIVQRIWDEKLKNHNFMLILSGSLVGMMQEHALSYSSPLYGRRTGQIKLKQFSFKEAKEFFPEASDDQFIWIYSIVGGVPKYLEMFKFEGDIYKAIEENILSRQSFLYEEPLFLLEKEVHEVGSYFSIIKSIALGNHKLSQIAQSLSTAQTKLTKYLNTLIDLDIVRREVPVTEEYPEKSKRGLYFINDNFIDFWFKFVYPYREQLELDNTEYVIENIKSKIVTNHISFIYEEVCRQILMDLIKTKEIDIQLDRIGKWWDSKSEIDIVGISKNTGHVVFGECKYSQRVVDIDVFFNLKKKAENIKVFPEQKELYILFSRTGFSERLLEFAKETENLILIKFP | failed
4 | MADLTHEFWDRLEDVRSGMLGIKGQGRLIPMSPQTDDDAPGAIWFITAKGTDLAKGVAAGPQPAQFVVSDDGEGLYADLDGTLERSTDREALDEFWSFVADAWFDGGQHDPDVCLLKFTPASGEISITEGGGARFLYEIAKAHLTDETPDMGEQATVTF | not failed
5 | MEKDLLDKLGQHLVWRMGRAEDEDVLVVRVGLASATPRFRELPRLLNLPEAEMRRLVQEGRVRVEWVEE | not failed
6 | MNPLHLAAAFASGCLLTLMVHFNGQLAHYGNALFSSWTAHGTGTVAALIYLAIMRPKKDAAAPAKPNAPLWAYCGGVVGAAIVILTSTAVNSPLALSGTIALGLGGQVIFSLLADLFGLFGLPKRRPDVQDMVAVCLILCGSALIILVGRAA | failed
7 | MKIEHVALWTTNLEQMKQFYVTYFGATANDLYENKTKGFNSYFLSFEDGARLEIMSRTDVTGKTTGENLGWAHIAISTGTKEAVDELTEKLRQDGFAIAGEPRMTGDGYYESVVLDPEGNRIEITW | not failed
8 | MNFSESFKLSGLLCRFSPDGKYLASCVQYRLVIRDVTTLQILQLYTCLDQIQHIEWSADSLFILCAMYRRGLVQVWSLEQPEWHCKIDEGSAGLVASCWSPDGRHILNTTEFHLRITVWSLCTKSVSYIKYPKACQQGLTFTRDGRYLALAERRDCRDYVSIFVCSDWQLLRHFDTDTQDLTGIEWAPNGCVLAAWDTCLEYKVLLYSLDGRLLSAYCAYEWSLGIKSVAWSPSSQFLAIGSYDGKVRLLNHVTWKMITEFGHPATINNPKTVVYKEAEKSPLLGLGHLSFPPPRAMAGALSTSESKYEIASGPVSLQTLKPVADRANPRMGVGMLAFSSDSYFLASRNDNVPNAVWIWDIQKLKLFVVLEHMSPVRSFQWDPQQPRLAICTGGSKVYLWSPAGCVSVQVPGEGDFPVLGLCWHLSGDSLALLSKDHFCLCFLETKERVGTAYEQRDGMPRT | failed
9 | MHNFLIIGAFISLGILLRRFKALPEHTPFVLNKIAINVCLPALILLNAPKIAFTRDAVTAAIIPWALLALSVGLVLLGAKIWQWPRPVVGVLLLIVPLGNTSFLGVPIIRTFFGADGLPHLIVYDQIGTMMIFATYGSFILSLYGQDGTLSVSAVVRKMLLFPPSLALAAGLALKSWSYPDGLSLALHYLALPLVPVVMTAIGLQLRLRLPPHLAAPVGIGLGIKMLAAPLAVLVACRLVDMNGLAVGVSVVEAGMPPMVTAGALAVVAGMEAELAIALVGIGILCSFGSLPALFWLVSL | failed
10 | MAEKSNKLDHIGIAVTSIKDVLPFYVGSLKLKLLGMEDLPSQGVKIAFLEIGESKIELLEPLSEESPIAKFIQKRGEGIHHIAIGVKSIEERIQEVKENGVQMINDEPVPGARGAQVAFLHPRSARGVLYEFCEKKEQ | not failed
11 | SVATQHLFARQKNTQLTLHVAHSFCSQWLMPRLADFHRQHPDVVVKISTTANTVPNASAIADVEIINGYGDWQSEQAVQLTQEN | failed
12 | MTDYVNYNQERWNRVSARQGNAYTVPLSHEEFLVAKDKPLSVSLTVGKTVPLDWFEKAKGKKLLGLACGGGQQGPISAAHSYETTILDFSKEQLDKDRLVAERENLDLQTVQADMTQAFPFEDESFDIIFCPVSNIYIEDLANMWQESYRVLKKGGLLMVGYMNPWIYVFDADDVWEHPDKTLVPKYSLPFNARQLEEAGQITIDPEYGYEFSHTLEEQIAGQLRAGFAMIDFYESKDSRNRLTQFASDYLANLSMKW | failed
13 | MGCAEEKKTDVRWATFNIRYDNPQDSLNNWQYRKDRVCQFIKDHELDIVGMQEVLHNQFQDLRAGLPEYDGIGVGRDDGKTAGEYAPLFYRKDKYEVLDSNTFWLAENPDSVGMMGWDAVCVRIATWAKFKDKATGKIFMAVNTHFDHVGEEARRQSALLIIRKIKEIVGERPAVVTGDFNVTDASDAYETITTNEFVMKDAYKTAARVTGVDYTFHDFARIPAEDCEKIDFIFVTPQVLVKSCEIPAEVPEALLSDHNPQLADLELEHHHHHH | failed
14 | MDHRASRTGLFILGLCFVLSLLGRGLGESFTVFLLPISGSFGWDRAEVVSIYSLTALCTGLASPLVGRLFDRSGPRVVYTLGMTLLGGALLIAAYAERLWQLQLTVGLCVGLGIAFTGNVPNSILLGRWFGARLPTAMAVVYSAIGAGVLVMLPIAQLLIDRYGWREAYLILGGAMLILLVPLSLMPWRRFAAGADAHAQRPAQDADEDGWTLGSAMRHHAFWALFATFFFTAIGMYSISAQVVAYLVDAGFTPLQAATAWGFSGVVLVVGMLGVSWLDGVIGRRPSILFSYAISITGLVLLWLLQWYPNLLLLGGFVICFGSMIGSRGPLITATAMSIFRGRRVGTIYGTISIGSGLGSAFGSWCGGLLHDLTQSYNPVLGFALVSVVLGMIPFLVVPALRERQ | failed
15 | MAYEQFAYVYDELMQDVPYPEWVAWVLEQVEPGKRIADIGCGTGTATLLLADHYEVTGVDLSEEMLEIAQEKAMETNRHVDFWVQDMRELELPEPVDAITILCDSLNYLQTEADVKQTFDSAARLLTDGGKLLFDVHSPYKMETLFNGKTYATHAEQSSYIWFADPGEEPLSVVHELTFFIEGEDGRYDRVDETHHQRTYPPEQYITWLREAGFRVCAVTGDFKSDAPTETAERIFFVAEKI | not failed
16 | MSWTVVYSAQAKQDLRNIFEYIAHSLCSPDAAKSQTRRIMAEIHSLDEMPLRYRIYDDEPWRSQGLRFFPVDYYLVFYLPVASANTVKIVRIMYGGRDVKKHLEEELLEHHHHHH | failed
17 | MATYNYPEFGAGLWHFANYIDRYAVDGYGPALSTIDQINAAKEVGELSYVDLPYPFTPGVTLSEVKDALKDAGLKAIGITPEIYLQKWSRGAFTNPDPAARAAAFELMHESAGIVRELGANYVKVWPGQDGWDYPFQVSHKNLWKLAVDGMRDLAGANPDVKFAIEYKPREPRVKMTWDSAARTLLGIEDIGLDNVGVLLDFGHALYGGESPADSAQLIIDRGRLFGMDVNDNLRGWDDDLVVGTVHMTEIFEFFYVLKINNWQGVWQLDQFPFRENHVEAAQLSIRFLKHIYRALDKLDIPALQAAQEAQNPLQAQRIVQDALLSSITVSE | not failed
18 | MTEASAPLIDVDPRLLEVLVCPVTRGPLEYDRAKGELISRAAKLAYPIRDGVPIMLPEEARELEGLEHHHHHH | not failed
19 | MNVLFTSVPQEDVPFYQEALKDLSLKIYTTDVSKVPENELKKAELISVFVYDKLTEELLSKMPRLKLIHTRSVGFDHIDLDYCKKKGILVTHIPAYSPESVAEHTFAMILTLVKRLKRIEDRVKKLNFSQDSEILARELNRLTLGVIGTGRIGSRVAMYGLAFGMKVLCYDVVKREDLKEKGCVYTSLDELLKESDVISLHVPYTKETHHMINEERISLMKDGVYLINTARGKVVDTDALYRAYQRGKFSGLGLDVFEDEEILILKKYTEGKATDKNLKILELACKDNVIITPHIAYYTDKSLERIREETVKVVKAFVKGDLEQIKGNFVVGPS | not failed
20 | MDFKSSDAIRGPRTEDHLPHTAQAAVKIVIVGGFGVGKTTMVGSVSEIRPLTTEETMTQMGIGVDDNYGSESKTATTVAMDFGRISITEQLVLYLFGTPGQERFWFLWNGLFEGALGAVVLIDTRRLEVSFDVIGRLEERGVPFVIAVNDFPDAPRYPVEDLRGALDLTEDIPIVKCDARRRASSREVLMTLMHFLHSLAVSKTSVLEHHHHHH | failed
21 | ISTVSGKVERLISFDIAKRWYLRDIAERMYTSESLIKKKLQDENTCFSKILLASRMSMARRLLELRQIPLHTIAEKCGYSSTSYFINTFRQYYGVTPHQFAQHSPGT | failed
22 | MRYRRAARPVATVLIHAMQTYPLVFHASPDQTIAWRDGAPVAVRTFLAEVAQLAAALPAGAHVFNACTDRYRFTVGLCATLVAGKISLLPASQTPETVRRLAAFAPDVFCLHDAPDCAIALPRFRFPEPLPPAGADAPVDVPQIDASRVMAYIFTSGSTGTPVPHRKTWGALVEGVRASAARLGLLDAHACTLVGTVPPQHMYGFESTVLLALVGGLAFSNRLPFYPADIRAALEAVPQPRVLVTSPIHLRALLSSERALPPAALVLSATAALPEPLASEAEARLAAPLIEIYGSTETGQIATRRTAQGATWHLQPGIRLEARAGTPDEDGPVTWASGAHLDAPVPMGDTLELIDDTHFLLHGRKADLINVAGKRTSLAYLNHQLNAIPGVEDGVFFMPSAADNGSEPPARLAALVVAPELAAADLLHALRERIDPAFLPRPLLLVEALPRDATGKLPRDALAALIAQHGHRGARAGAPAPITFTIPADHPALPGHFPGHPIVPGVVLLDQAIRRIGAALNRPFDACRLSSAKFLSPAAPGVPLALAFEATASGAIRFTVSAGEREVASGVLAQQEAARP | failed
23 | MTTLTRQDLNFGQVVADVLSEFLEVAVHLILYVREVYPVGIFQKRKKYNVPVQMSCHPELNQYIQDTLHCVKPLLEKNDVEKVVVVILDKEHRPVEKFVFEITQPPLLSINSDSLLSHVEQLLRAFILKISVCDAVLDHNPPGCTFTVLVHTREAATRNMEKIQVIKDFPWILADEQDVHMHDPRLIPLKTMTSDILKMQLYVEERAHKNS | not failed
24 | MDLNFSKEEIAFRDEVRQFFKDNVPAKTRQKLIEGRHNTKEEMVEWYRILNKKGWAVTHWPKEYGGTGWSSVQHYIFNEELQAAPAPQPLAFGVSMVGPVIYTFGSEEQKKRFLPRIANVDDWWCQGFSEPGSGSDLASLKTKAEKKGDKWIINGQKTWTTLAQHADWIFCLCRTDPAAKKQEGISFILVDMKTKGITVRPIQTIDGGHEVNEVFFDDVEVPLENLVGQENKGWDYAKFLLGNERTGIARVGMSKERIRRIKQLAAQVESGGKPVIEDPKFRDKLAAVEIELKALELTQLRVVADEGKHGKGKPNPASSVLKIKGSEIQQATTELLMEVIGPFAAPYDVHGDDDSNETMDWTAQIAPGYFNNRKVSIYGGSNEIQRNIICKAVLGL | failed
